± gives the standard deviation of the averaged measurements.
Assay: total protein half-life in vivo (active degradation + dilution); higher = more stable protein
[1] = E. coli NCM3722 delta-clpP delta-lon delta-hslV, growth: N-lim chemostat, doubling time 6 h
[2] = E. coli NCM3722 delta-smpB, growth: N-lim chemostat, doubling time 6 h
[3] = wild type E. coli NCM3722, growth: C-lim chemostat, doubling time 3 h
[4] = wild type E. coli NCM3722, growth: C-lim chemostat, doubling time 6 h
[5] = wild type E. coli NCM3722, growth: C-lim chemostat, doubling time 12 h
[6] = wild type E. coli NCM3722, growth: P-lim chemostat, doubling time 12 h
[7] = wild type E. coli NCM3722, growth: N-lim chemostat, doubling time 12 h
[8] = E. coli NCM3722 delta-clpP, growth: N-lim chemostat, doubling time 6 h
[9] = E. coli NCM3722 delta-hslV, growth: N-lim chemostat, doubling time 6 h
[10] = wild type E. coli NCM3722, growth: N-lim chemostat, doubling time 6 h
[11] = wild type E. coli NCM3722, growth: P-lim chemostat, doubling time 6 h
[12] = E. coli NCM3722 delta-lon, growth: N-lim chemostat, doubling time 6 h

MKMANHPRPGDIIQESLDELNVSLREFARAMEIAPSTASRLLTGKAALTPEMAIKLSVVIGSSPQMWLNLQNAWSLAEAEKTVDVSRLRRLVTQ
total protein half-life in vivo [1]: 3.73 ± 0.35 h
total protein half-life in vivo [2]: 1.217 ± 0.0059 h
total protein half-life in vivo [3]: 1.58 h
total protein half-life in vivo [4]: 2.32 h
total protein half-life in vivo [5]: 2.59 h
total protein half-life in vivo [6]: 3.05 ± 1.1 h

MKMLRDPLFWLIALFVALIFWLPYSQPLFAALFPQLPRPVYQQESFAALALAHFWLVGISSLFAVIIGTGAGIAVTRPWGAEFRPLVETIAAVGQTFPPVAVLAIAVPVIGFGLQPAIIALILYGVLPVLQATLAGLGAIDASVTEVAKGMGMSRGQRVRKVELPLAAPVILAGVRTSVIINIGTATIASTVGASTLGTPIIIGLSGFNTAYVIQGALLVALAAIIADRLFERLVQALSQHAK
total protein half-life in vivo [7]: 5.89 h

MKNDVISPEFDENGRPLRRIRSFVRRQGRLTKGQEHALENYWPVMGVEFSEDMLDFPALFGREAPVTLEIGFGMGASLVAMAKDRPEQDFLGIEVHSPGVGACLASAHEEGLSNLRVMCHDAVEVLHKMIPDNSLRMVQLFFPDPWHKARHNKRRIVQVPFAELVKSKLQLGGVFHMATDWEPYAEHMLEVMSSIDGYKNLSESNDYVPRPASRPVTKFEQRGHRLGHGVWDLMFERVK [P0A8I5]
total protein half-life in vivo [1]: 5.11 ± 0.029 h
total protein half-life in vivo [8]: 4.82 h
total protein half-life in vivo [9]: 7.09 h
total protein half-life in vivo [2]: 4.18 ± 0.61 h
total protein half-life in vivo [3]: 2.73 h
total protein half-life in vivo [4]: 4.88 ± 0.4 h
total protein half-life in vivo [5]: 8.12 ± 0.26 h
total protein half-life in vivo [10]: 4.58 ± 0.17 h
total protein half-life in vivo [7]: 7.49 ± 1.2 h
total protein half-life in vivo [11]: 3.77 h
total protein half-life in vivo [6]: 8.11 ± 0.11 h

MKNIIRTPETHPLTWRLRDDKQPVWLDEYRSKNGYEGARKALTGLSPDEIVNQVKDAGLKGRGGAGFSTGLKWSLMPKDESMNIRYLLCNADEMEPGTYKDRLLMEQLPHLLVEGMLISAFALKAYRGYIFLRGEYIEAAVNLRRAIAEATEAGLLGKNIMGTGFDFELFVHTGAGRYICGEETALINSLEGRRANPRSKPPFPATSGAWGKPTCVNNVETLCNVPAILANGVEWYQNISKSKDAGTKLMGFSGRVKNPGLWELPFGTTAREILEDYAGGMRDGLKFKAWQPGGAGTDFLTEAHLDLPMEFESIGKAGSRLGTALAMAVDHEINMVSLVRNLEEFFARESCGWCTPCRDGLPWSVKILRALERGEGQPGDIETLEQLCRFLGPGKTFCAHAPGAVEPLQSAIKYFREEFEAGIKQPFSNTHLINGIQPNLLKERW
total protein half-life in vivo [1]: 5.67 ± 0.18 h
total protein half-life in vivo [8]: 5.27 ± 0.43 h
total protein half-life in vivo [9]: 6.1 ± 0.97 h
total protein half-life in vivo [12]: 5.74 ± 0.13 h
total protein half-life in vivo [2]: 5.48 ± 0.17 h
total protein half-life in vivo [3]: 2.73 ± 0.23 h
total protein half-life in vivo [4]: 5.63 ± 0.092 h
total protein half-life in vivo [5]: 9.99 ± 0.41 h
total protein half-life in vivo [10]: 5.44 ± 0.24 h
total protein half-life in vivo [7]: 9.884 ± 0.082 h
total protein half-life in vivo [11]: 5.251 ± 0.0079 h
total protein half-life in vivo [6]: 10.4 ± 0.9 h

MKNIRNFSIIAHIDHGKSTLSDRIIQICGGLSDREMEAQVLDSMDLERERGITIKAQSVTLDYKASDGETYQLNFIDTPGHVDFSYEVSRSLAACEGALLVVDAGQGVEAQTLANCYTAMEMDLEVVPVLNKIDLPAADPERVAEEIEDIVGIDATDAVRCSAKTGVGVQDVLERLVRDIPPPEGDPEGPLQALIIDSWFDNYLGVVSLIRIKNGTLRKGDKVKVMSTGQTYNADRLGIFTPKQVDRTELKCGEVGWLVCAIKDIHGAPVGDTLTLARNPAEKALPGFKKVKPQVYAGLFPVSSDDYEAFRDALGKLSLNDASLFYEPESSSALGFGFRCGFLGLLHMEIIQERLEREYDLDLITTAPTVVYEVETTSREVIYVDSPSKLPAVNNIYELREPIAECHMLLPQAYLGNVITLCVEKRGVQTNMVYHGNQVALTYEIPMAEVVLDFFDRLKSTSRGYASLDYNFKRFQASDMVRVDVLINGERVDALALITHRDNSQNRGRELVEKMKDLIPRQQFDIAIQAAIGTHIIARSTVKQLRKNVLAKCYGGDISRKKKLLQKQKEGKKRMKQIGNVELPQEAFLAILHVGKDNK
total protein half-life in vivo [1]: 5.44 ± 0.33 h
total protein half-life in vivo [8]: 5.46 ± 0.92 h
total protein half-life in vivo [9]: 5.24 ± 0.14 h
total protein half-life in vivo [12]: 5.28 ± 0.43 h
total protein half-life in vivo [2]: 4.79 ± 0.27 h
total protein half-life in vivo [3]: 3.03 ± 0.18 h
total protein half-life in vivo [4]: 5.49 ± 0.072 h
total protein half-life in vivo [5]: 10.2 ± 0.72 h
total protein half-life in vivo [10]: 4.754 ± 0.043 h
total protein half-life in vivo [7]: 8.74 ± 0.49 h
total protein half-life in vivo [11]: 5.851 ± 0.057 h
total protein half-life in vivo [6]: 12.16 ± 0.1 h

MKNIRYIDKKDVENLIENKISDDVIIFLSGPTSQKTPLSVLRTKDIIAVNGSAQYLLSNNIVPFIYVLTDVRFLHQRRDDFYKFSQRSRYTIVNVDVYEHASKEDKLYILQNCLVLRSFYRREKGGFIKKIKFNILRQIHKELLISVPLSKKGRLVGFCKDISLGYCSCHTIAFAAIQIAYSLKYARIICSGLDLTGSCSRFYDENKNPMPSELSRDLFKILPFFRFMHDNVKDINIYNLSDDTAISYDVIPFIKLQDISAEESKDMTRKKMQYRTSTDSYAN
total protein half-life in vivo [1]: 5.01 ± 0.085 h
total protein half-life in vivo [8]: 4.65 ± 0.19 h
total protein half-life in vivo [12]: 3.32 ± 0.14 h
total protein half-life in vivo [2]: 3.714 ± 0.0057 h
total protein half-life in vivo [3]: 1.67 ± 0.44 h
total protein half-life in vivo [4]: 1.52 ± 0.34 h
total protein half-life in vivo [5]: 1.73 ± 0.45 h
total protein half-life in vivo [10]: 3.52 h
total protein half-life in vivo [7]: 6.11 ± 0.77 h
total protein half-life in vivo [11]: 1.84 ± 0.14 h
total protein half-life in vivo [6]: 4.15 ± 0.71 h

MKNKADNKKRNFLTHSEIESLLKAANTGPHAARNYCLTLLCFIHGFRASEICRLRISDIDLKAKCIYIHRLKKGFSTTHPLLNKEVQALKNWLSIRTSYPHAESEWVFLSRKGNPLSRQQFYHIISTSGGNAGLSLEIHPHMLRHSCGFALANMGIDTRLIQDYLGHRNIRHTVWYTASNAGRFYGIWDRARGRQRHAVL [P0ADH5]
total protein half-life in vivo [1]: 5.33 ± 0.87 h
total protein half-life in vivo [12]: 1.9 h
total protein half-life in vivo [2]: 0.718 ± 0.15 h
total protein half-life in vivo [7]: 0.988 h

MKNKLPPFIEIYRALIATPSISATEEALDQSNADLITLLADWFKDLGFNVEVQPVPGTRNKFNMLASIGQGAGGLLLAGHTDTVPFDDGRWTRDPFTLTEHDGKLYGLGTADMKGFFAFILDALRDVDVTKLKKPLYILATADEETSMAGARYFAETTALRPDCAIIGEPTSLQPVRAHKGHISNAIRIQGQSGHSSDPARGVNAIELMHDAIGHILQLRDNLKERYHYEAFTVPYPTLNLGHIHGGDASNRICACCELHMDIRPLPGMTLNELNGLLNDALAPVSERWPGRLTVDELHPPIPGYECPPNHQLVEVVEKLLGAKTEVVNYCTEAPFIQTLCPTLVLGPGSINQAHQPDEYLETRFIKPTRELITQVIHHFCWH
total protein half-life in vivo [1]: 4.97 ± 0.62 h
total protein half-life in vivo [8]: 4.73 ± 0.34 h
total protein half-life in vivo [9]: 4.636 ± 0.017 h
total protein half-life in vivo [12]: 4.68 ± 0.19 h
total protein half-life in vivo [2]: 4.29 ± 0.23 h
total protein half-life in vivo [3]: 3.27 ± 0.46 h
total protein half-life in vivo [4]: 5.46 ± 0.24 h
total protein half-life in vivo [5]: 10.9 ± 2.2 h
total protein half-life in vivo [10]: 4.68 ± 0.058 h
total protein half-life in vivo [7]: 7.38 ± 0.21 h
total protein half-life in vivo [11]: 5.95 ± 0.067 h
total protein half-life in vivo [6]: 11 ± 0.37 h

From the supplement of paper PMC11246515
